Values of other authors as cited in patent publication US9994615B2, “Self-regulated peptide hydrogel for insulin delivery” (Massachusetts Institute of Technology, priority 2012, dated 2018).

Tests used:
[1] = after subcutaneous injection

Compound | pKa | Time basal level of insulin is maintained [1]
OB(O)c1ccccc1 [phenylboronic acid] | approximately 8.9 | –
insulin detemir | – | up to 20 hours
glargine | – | up to 24 hours
